The values below come from US20260250398A1 (ANTLERA THERAPEUTICS, published 2026).

T1: LRP6 (low-density lipoprotein receptor-related protein 6) (UniProt O75581 20-1370, limits assumed)
T1 sequence (looked up): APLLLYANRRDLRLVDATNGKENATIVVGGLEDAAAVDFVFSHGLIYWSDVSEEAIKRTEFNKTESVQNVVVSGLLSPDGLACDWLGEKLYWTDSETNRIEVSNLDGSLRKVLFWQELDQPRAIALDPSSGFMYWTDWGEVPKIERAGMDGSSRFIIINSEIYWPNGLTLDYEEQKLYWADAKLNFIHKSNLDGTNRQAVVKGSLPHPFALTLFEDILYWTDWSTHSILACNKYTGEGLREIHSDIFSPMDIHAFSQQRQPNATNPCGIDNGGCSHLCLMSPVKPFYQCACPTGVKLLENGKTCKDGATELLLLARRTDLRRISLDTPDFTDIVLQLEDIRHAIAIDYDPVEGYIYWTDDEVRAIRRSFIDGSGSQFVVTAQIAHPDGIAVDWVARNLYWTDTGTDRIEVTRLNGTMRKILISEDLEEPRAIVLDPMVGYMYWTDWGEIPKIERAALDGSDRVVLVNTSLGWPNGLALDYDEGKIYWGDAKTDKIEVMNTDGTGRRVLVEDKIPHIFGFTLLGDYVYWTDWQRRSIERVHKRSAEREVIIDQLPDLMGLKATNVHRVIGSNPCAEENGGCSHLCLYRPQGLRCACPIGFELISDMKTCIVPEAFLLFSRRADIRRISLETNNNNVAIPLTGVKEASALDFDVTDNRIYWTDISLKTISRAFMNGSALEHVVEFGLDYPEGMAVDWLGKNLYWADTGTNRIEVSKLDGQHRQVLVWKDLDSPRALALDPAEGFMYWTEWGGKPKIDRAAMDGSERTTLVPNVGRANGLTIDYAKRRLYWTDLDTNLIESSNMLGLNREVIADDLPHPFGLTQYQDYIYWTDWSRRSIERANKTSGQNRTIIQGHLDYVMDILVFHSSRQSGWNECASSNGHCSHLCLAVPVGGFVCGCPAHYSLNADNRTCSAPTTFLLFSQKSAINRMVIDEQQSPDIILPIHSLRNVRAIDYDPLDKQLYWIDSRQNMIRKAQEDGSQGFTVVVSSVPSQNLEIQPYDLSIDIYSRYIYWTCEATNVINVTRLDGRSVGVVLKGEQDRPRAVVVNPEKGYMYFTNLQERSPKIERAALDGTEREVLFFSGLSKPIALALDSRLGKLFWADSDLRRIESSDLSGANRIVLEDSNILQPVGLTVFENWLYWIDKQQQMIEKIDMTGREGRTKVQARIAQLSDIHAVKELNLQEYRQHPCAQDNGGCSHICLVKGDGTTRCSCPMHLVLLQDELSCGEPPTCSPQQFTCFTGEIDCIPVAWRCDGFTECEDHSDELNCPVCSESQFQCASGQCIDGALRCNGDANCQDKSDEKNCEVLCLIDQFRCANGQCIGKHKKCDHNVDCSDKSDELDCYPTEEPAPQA

B1: CT0003 (Table 5: FZD Diabody-Fc-LRP scFv; paratopes 5016; 2539, 2542) (bispecific antibody)
chain 1: MNLLLILTFVAAAVAEFEVQLVESGGGLVQPGGSLRLSCAASGFNISSYYIHWVRQAPGKGLEWVASIYSSYGYTSYADSVKGRFTISADTSKNTAYLQMNSLRAEDTAVYYCARTVRGSKKPYFSGWAMDYWGQGTLVTVSSGGGGSDIQMTQSPSSLSASVGDRVTITCRASQSVSSAVAWYQQKPGKAPKLLIYSASSLYSGVPSRFSGSRSGTDFTLTISSLQPEDFATYYCQQYSWGPFTFGQGTKVEIKLEDKTHTKVEPKSSDKTHNCPPCPAPELLGGPSVFLFPPKPKDTLMISRTPEVTCVVVDVSHEDPEVKFNWYVDGVEVHNAKTKPREEQYNSTYRVVSVLTVLHQDWLNGKEYKCKVSNKALPAPIEKTISKAKGQPREPQVYTLPPIRELMTSNQVSLSCAVKGFYPSDIAVEWESNGQPENNYKTTPPVLDSDGSFFLVSKLTVDKSRWQQGNVFSCSVMHEALHNHYTQKSLSLSPGKSGSETPGTSESATPESGGGEVQLVESGGGLVQPGGSLRLSCAASGFNIHSSSIHWVRQAPGKGLEWVAATYSSFGSITYADSVKGRFTISADTSKNTAYLQMNSLRAEDTAVYYCARYHHPFGYALDYWGQGTLVTVSSGTTAASGSSGGSSSGADIQMTQSPSSLSASVGDRVTITCRASQSVSSAVAWYQQKPGKAPKLLIYSASSLYSGVPSRFSGSRSGTDFTLTISSLQPEDFATYYCQQGVYLFTFGQGTKVEIK
chain 2: MNLLLILTFVAAAVAEFEVQLVESGGGLVQPGGSLRLSCAASGFNISYSSIHWVRQAPGKGLEWVAYISSYYGYTYYADSVKGRFTISADTSKNTAYLQMNSLRAEDTAVYYCARAHYFPWAGAMDYWGQGTLVTVSSGGGGDIQMTQSPSSLSASVGDRVTITCRASQSVSSAVAWYQQKPGKAPKLLIYSASSLYSGVPSRFSGSRSGTDFTLTISSLQPEDFATYYCQQYYWPITFGQGTKVEIKLEDKTHTKVEPKTSDKTHTCPPCPAPELLGGPSVFLFPPKPKDTLMISRTPEVTCVVVDVSHEDPEVKFNWYVDGVEVHNAKTKPREEQYNSTYRVVSVLTVLHQDWLNGKEYKCKVSNKALPAPIEKTISKAKGQPREPMVFDLPPSREEMTKNQVSLWCMVKGFYPSDIAVEWESNGQPENNYKTTPPVLDSDGSFFLYSKLTVDKSRWQQGNVFSCSVMHEALHNHYTQKSLSLSPGKSGSETPGTSESATPESGGGEVQLVESGGGLVQPGGSLRLSCAASGFNIHSSSIHWVRQAPGKGLEWVAATYSSFGSITYADSVKGRFTISADTSKNTAYLQMNSLRAEDTAVYYCARYHHPFGYALDYWGQGTLVTVSSGTTAASGSSGGSSSGADIQMTQSPSSLSASVGDRVTITCRASQSVSSAVAWYQQKPGKAPKLLIYSASSLYSGVPSRFSGSRSGTDFTLTISSLQPEDFATYYCQQGVYLFTFGQGTKVEIK
B2: CM0299 (FZD IgG-LRP Diabody; paratopes 5016; 2539) (bispecific antibody)
heavy: not shown
light: DIQMTQSPSSLSASVGDRVTITCRASQSVSSAVAWYQQKPGKAPKLLIYSASSLYSGVPSRFSGSRSGTDFTLTISSLQPEDFATYYCQQGVYLFTFGQGTKVEIKRTVAAPSVFIFPPSDEQLKSGTASVVCLLNNFYPREAKVQWKVDNALQSGNSQESVTEQDSKDSTYSLSSTLTLSKADYEKHKVYACEVTHQGLSSPVTKSFNRGEC
B3: CM0300 (FZD IgG-LRP scFv; paratopes 5016; 2539) (bispecific antibody)
heavy: not shown
light: B2 light
B4: CM0301 (FZD IgG-LRP scFv; paratopes 5016; 2542) (bispecific antibody)
heavy: not shown
light: B2 light
B5: CH3 (Dia-CH3-Dia; paratopes 5019; 2539) (bispecific antibody)
chain: MNLLLILTFVAAAVAEFEVQLVESGGGLVQPGGSLRLSCAASGFNIGSSSIHWVRQAPGKGLEWVASIYSAFASTSYADSVKGRFTISADTSKNTAYLQMNSLRAEDTAVYYCARYHFPFGFALDYWGQGTLVTVSSGGGGSDIQMTQSPSSLSASVGDRVTITCRASQSVSSAVAWYQQKPGKAPKLLIYSASSLYSGVPSRFSGSRSGTDFTLTISSLQPEDFATYYCQQGVYLFTFGQGTKVEIKDKTHTKVEPKTSDKTHTCPPCPGQPREPQVYTLPPSREEMTKNQVSLTCLVKGFYPSDIAVEWESNGQPENNYKTTPPVLDSDGSFFLYSKLTVDKSRWQQGNVFSCSVMHEALHNHYTQKSLSLSPGKGTTAASGSSGGSSSGAGRTEVQLVESGGGLVQPGGSLRLSCAASGFNISYSSIHWVRQAPGKGLEWVAYISSYYGYTYYADSVKGRFTISADTSKNTAYLQMNSLRAEDTAVYYCARAHYFPWAGAMDYWGQGTLVTVSSGGGGSDIQMTQSPSSLSASVGDRVTITCRASQSVSSAVAWYQQKPGKAPKLLIYSASSLYSGVPSRFSGSRSGTDFTLTISSLQPEDFATYYCQQYSWGPFTFGQGTKVEIK
B6: Fab-Dia (paratopes 5016; 2540/2542) (bispecific antibody)
heavy: EVQLVESGGGLVQPGGSLRLSCAASGFNIHSSSIHWVRQAPGKGLEWVAATYSSFGSITYADSVKGRFTISADTSKNTAYLQMNSLRAEDTAVYYCARYHHPFGYALDYWGQGTLVTVSSASTKGPSVFPLAPSSKSTSGGTAALGCLVKDYFPEPVTVSWNSGALTSGVHTFPAVLQSSGLYSLSSVVTVPSSSLGTQTYICNVNHKPSNTKVDKKVEPKSCDKTHTGGSGGEVQLVESGGGLVQPGGSLRLSCAASGFTISYSSIHWVRQAPGKGLEWVASISPYYGYTYYADSVKGRFTISADTSKNTAYLQMNSLRAEDTAVYYCARSSYFPWFSAMDYWGQGTLVTVSSGGGGSDIQMTQSPSSLSASVGDRVTITCRASQSVSSAVAWYQQKPGKAPKLLIYSASSLYSGVPSRFSGSRSGTDFTLTISSLQPEDFATYYCQQYYWPITFGQGTKVEIK
light: DIQMTQSPSSLSASVGDRVTITCRASQSVSSAVAWYQQKPGKAPKLLIYSASSLYSGVPSRFSGSRSGTDFTLTISSLQPEDFATYYCQQGVYLFTFGQGTKVEIKRTVAAPSVFIFPPSDEQLKSGTASVVCLLNNFYPREAKVQWKVDNALQSGNSQESVTEQDSKDSTYSLSSTLTLSKADYEKHKVYACEVTHQGLSSPVTKSFNRGECGGGGSEVQLVESGGGLVQPGGSLRLSCAASGFTISSYYIHWVRQAPGKGLEWVASIYSSYGYTSYADSVKGRFTISADTSKNTAYLQMNSLRAEDTAVYYCARTVRGSKKPYFSGWAMDYWGQGTLVTVSSGGGGSDIQMTQSPSSLSASVGDRVTITCRASQSVSSAVAWYQQKPGKAPKLLIYSASSLYSGVPSRFSGSRSGTDFTLTISSLQPEDFATYYCQQYYFLITFGQGTKVEIK

The target of the first assay is T1, LRP6 (low-density lipoprotein …). As to the kind of experiment: cell-based or functional assay.
Regarding B1, the “TOPFLASH % Wnt Maxima” value was 42 % Wnt Maxima.
For the molecule B2, the “TOPFLASH % Wnt Maxima” value was 14 % Wnt Maxima.
With B3, the “TOPFLASH % Wnt Maxima” value was determined as 5 % Wnt Maxima.
Still for that read-out and setting: in the case of B4 it was 1 % Wnt Maxima.

For a further assay the target is unchanged. As to the kind of experiment: cell-based or functional assay. This is another data set of the same source.
As to B5, the “TOPFLASH Maximal Signal (% Wnt3a maxima)” value was 22 % Wnt3a maxima.
Take B6: the “TOPFLASH Maximal Signal (% Wnt3a maxima)” value amounted to 42 % Wnt3a maxima.
